Measurements as given in the supplement of paper PMC9170038.

Test system: MS2 coat protein
Test: apparent KD of MS2 coat protein; designed switch direction (-1 OFF switch, 1 ON switch): -1; higher = weaker reporter binding
Outline: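 The apparent KD reported per design is the median over clusters of curve fits to normalised cluster fluorescence. The RNA switches were transcribed on Illumina chips by stalled E. coli RNA polymerase. SNAP-549-labelled MS2 coat protein was titrated from 0.7 or 1.5 nM, doubling up to 3 µM, in Tris-HCl pH 7.5 buffer containing KCl, MgCl2, BSA, DTT, tRNA and Tween-20, with no input, 200 uM small-molecule ligand, or an oligonucleotide input.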

[1] = Eterna round: R95, input ligand: FMN 200 uM
[2] = Eterna round: R95, input ligand: microRNA oligo, concentration not stated
[3] = Eterna round: R95, input ligand: none
[4] = input ligand: microRNA oligo, concentration not stated

| Sequence | apparent KD of MS2 coat protein [1] [nM] | apparent KD of MS2 coat protein [2] [nM] | apparent KD of MS2 coat protein [3] [nM] | apparent KD of MS2 coat protein [4] [nM] | apparent KD of MS2 coat protein (input ligand: FMN 200 uM) [nM] | apparent KD of MS2 coat protein (input ligand: none) [nM] |
| --- | --- | --- | --- | --- | --- | --- |
| GAGAACGUAGGAUAUACAUGAGGAUCACCCAUGUGAGGAAGGAGUAGGAAGAGUGGAAGUAGAAGGACGGAGAG [JR_Exclu3_Sub072] (puzzle: Exclusion 3) | 47.4 | 21.9 | 34.9 |  |  |  |
| UUCCGGCAUGUAGGAUAUGGAUCCGAUUAGGAUUUAGAAGGACAUGAGGAUCACCCAUGUGCAUUUAAUUAGUCAUUACCGUUU [EXclNG1-LROPPY06] (Eterna round: R96, puzzle: Exclusion NG 1) |  |  |  | 34.4 |  |  |
| UUGUUGUAUGUAGGAUAUGCAUAUUAUUAUUAUGCAGAAGGACAUGAGGAUCACCCAUGUGUAUUAUUAUUAUAUAUUAUAUAU [Title] (Eterna round: R96, puzzle: Exclusion NG 1) |  |  |  | 20 |  |  |
| AGUAACAGAGGAUAUACUAUUUUAUGUGUUUAUUAUUUUGAACAUGAGGAUCACCCAUGUAGAAGGCUGAAUAA [JMF 91] (puzzle: Exclusion 2) |  | 27.2 |  |  |  |  |
| UUGUUAUAUGUAGGAUAUGCGUAUUAUUAUUGGGCAGAAGGACAUGAGGAUCACCCAUGUAUGUUGUUGUUAUAUAUUAUAUAU [Title] (Eterna round: R96, puzzle: Exclusion NG 1) |  |  |  | 34 | 47.2 | 44.4 |
| AUAAUGUGAGGAUAUCGAGACUACUGCUUCGGCAGUAGUCUCGAGAAGGCACAUGAGGAUCACCCAUGUGAUCA [E4/2-A1] (Eterna round: R97, puzzle: Exclusion 4) |  |  |  |  | 56.6 | 685 |
| UCGCUGCGAGGAUAUACAUGAGGAUCACCCAUGUACGGGUCCGGGUCUUCGUCUAUUGGUAGAAGGCGCAGUGA [JL Laongeedie mod 8] (puzzle: Exclusion 3) |  | 43.6 |  |  |  |  |
| AAACAAAAGGCAGGAUAUCCUCGUCAACACCACAAGUCCACUCGGACAUGAGGAUCACCCAUGUAGGAGAAGGGCCAGAAAUAC [Bevearla] (Eterna round: R96, puzzle: Exclusion NG 2) |  |  |  | 17.5 | 88.8 | 19.6 |
| GCAUCCAAAGUGAGGAUAUACCUCUGGAUACAGAGGUAGAAGGCACAUGAGGAUCACCCAUGUUACUAGGAUGC [Fiskers BMX 4 - 35] (puzzle: Brourd's mod of Exclusion 4) |  | 13.2 |  |  |  |  |
| GCAGUGUCAGGAUAUUCGAGUUCGAGUGAAAGCUUGAGCUUGAAGAAGGGACAUGAGGAUCACCCAUGUGCUGU [-28.7, -27.7 kcal, A 27%, 1bis-(ca)1bis] (Eterna round: R97, puzzle: Exclusion 4) |  |  |  |  | 117 | 42.1 |
| UUAGAUAGGUCAGGAUAUCGAUGAUUGAAUAGUAUGAUUUACAUGAGGAUCACCCAUGUUUUGUACGAGAAGGGACGUUAGAUU [JR_ExcNG2_Sub020] (Eterna round: R96, puzzle: Exclusion NG 2) |  |  |  | 22.6 | 26.9 | 28.5 |
| UUAGGCGUCAUUGCUCGUCUUUUAUGGAGAUGACUGUUAACAUGAGGAUCACCCAUGUGUGUGGGAGCUUUGCAGUU [JR_SV3TOV2_Sub023] (puzzle: Sensor v3, turn-off variant 2) | 213 | 568 | 270 |  |  |  |
| AAAAGGCUAGGAUAUACAUGAGGAUCACCCAUGUGUACUGGACAUGCGGUAUGCGGAUGUAGAAGGAGUAUAAA [Esrere] (puzzle: Exclusion 3) |  | 22.4 |  |  |  |  |
| AAAACGUGAGCAGGAUAUGCAAUAAGAUCAGGUCUUCACAUGAGGAUCACCCAUGUAUAAGGGACGCAGAAGGGCUGAUAAAAG [Aesedat] (Eterna round: R96, puzzle: Exclusion NG 2) |  |  |  | 49.6 | 98.4 | 60.9 |
| AAUGCCAGUGUCAGGAUAUCCGGAGGGAAACCUCCGGAGAAGGGACAUGAGGAUCACCCAUGUAUGUAACCUGC [AK-MS2ROC-r4-Bmoexclusion4-7] (Eterna round: R97, puzzle: Brourd's mod of Exclusion 4) |  |  |  |  | 35.2 | 23.6 |
| GAAAACGCAGAGGAUAUUUCAGAUCAAAGCUGCAAAGAAGGCUGCACAUGAGGAUCACCCAUGUGGUCUCAAAA [Mod of Quesina 3 - Jieux - Exclusion 6] (Eterna round: R97, puzzle: Exclusion 6) |  |  |  |  | 422 | 33.6 |

| Sequence | apparent KD of MS2 coat protein [1] [nM] | apparent KD of MS2 coat protein [2] [nM] | apparent KD of MS2 coat protein [3] [nM] | apparent KD of MS2 coat protein [4] [nM] | apparent KD of MS2 coat protein (input ligand: FMN 200 uM) [nM] | apparent KD of MS2 coat protein (input ligand: none) [nM] |
| --- | --- | --- | --- | --- | --- | --- |
| AAAAGCCUAGGAUAUACUUGAGGAUCACCCAAGUAGGGUCGCAUGGACCCGUCCUCGUGUAGAAGGAGGAAAAG [Orreteceer] (Eterna round: R97, puzzle: Exclusion 3) |  |  |  |  | 108 | 46.7 |
| AGUACUAACACGAAAGUGUUAGUGCAAUAAGCUUGUGAAACAUGAGGAUCACCCAUGUCCUCAUAAGCUCGUCUUAU [salish99_TOv2_r3_039] (puzzle: Sensor v3, turn-off variant 2) | 15.6 | 582 | 16.2 |  |  |  |
| UUUGCAAGCUUUUGAUCCCACAUGAGGAUCACCCAUGUUGCUGCCGUGAGGUAGCAUUUAACAAAUGCUCGUCUUAU [JL TOV1 3.53] (Eterna round: R97, puzzle: Sensor, turn-off variant 1) |  |  |  |  | 555 | 762 |
| GCACAGGCAGGAUAUACAUGAGGAUCACCCAUGUGAUCCCUUAAGUACAAAAGUACAAGUAGAAGGGCCUGUGC [Omei Ex3 Model Bachelor's Dilema v43] (Eterna round: R97, puzzle: Exclusion 3) |  |  |  |  | 21.2 | 916 |
| GAAAAGGUAGAGGAUAUUUCAGAUCAAAGCUGCAAAGAAGGCUGCACAUGAGGAUCACCCAUGUGGUCAAUAAA [Mod of Quesina 12 - Jieux - Exclusion 6] (Eterna round: R97, puzzle: Exclusion 6) |  |  |  |  | 59.7 | 20.9 |
| UUAUUAUAUGUAGGAUAUGCGUAUUGUUGUUAUGCAGAAGGACAUGAGGAUCACCCAUGUAUAUUAUUGUUAUAUAUUAUAUAU [Title] (Eterna round: R96, puzzle: Exclusion NG 1) |  |  |  | 20.2 | 43 | 25.3 |
| CUGUUUUUCGCAGGAUAUGCUCCUCCAUUAUUUGCAGAAGGGCGUUGAACAUGAGGAUCACCCAUGUAUGGAAAUGACUAUUGC [JR_ExcNG1_Sub068] (Eterna round: R96, puzzle: Exclusion NG 1) |  |  |  | 14.9 | 22.1 | 18.2 |
| CUGGUCCGAGGAUAUAUUAUGUGAUACAUGAGGAUCACCCAUGUUAUAUGAUGGAUAUAAAUAGAAGGCGGACUAG [Mat - Exclusion 5 - JL mod - D66] (puzzle: Exclusion 5) | 48.6 | 42.4 | 35.8 |  |  |  |
| GCGCCAUCGUGAGAUGGCGUAAAUACAUGAGGAUCACCCAUGUAGGAUAUCGAUUGCUUUGCAGUCGAGAAGGGCAAGGUAUUU [JL ENG3 3.90] (Eterna round: R96, puzzle: Exclusion NG 3) |  |  |  | 18.1 | 28.4 | 24.9 |
| UACUGGACAGGAUAUGUUCUUGAGCACUUGAGGAUCACCCAAGUCAUCAAGAACUCAGGCACAGAAGGGUUUAUGU [salish99_ex5_r4_005] (Eterna round: R97, puzzle: Exclusion 5) |  |  |  |  | 70.2 | 18.5 |
| AGCUGUGGCCGAGGAUAUCUACCUUCAAUAACCGAAAUAUAAUCGGACAUGAGGAUCACCCAUGUAGAGAAGGCGGUCUCAGCA [Eli eng2 - 086] (Eterna round: R96, puzzle: Exclusion NG 2) |  |  |  | 10.9 |  |  |
| UACGGGUCAGGAUAUGCGAGAGAUUGGGAAAUAGGAAGGUAGCAGAAGGGACAUGAGGAUCACCCAUGUGAAGC [JR_Exclu4_Sub097] (puzzle: Exclusion 4) | 32.2 | 25.9 | 28.8 |  |  |  |
| CUUGUGUAAGGAUAUAUGAGUCACGGAAAUAAACCGUGAAGAUAGAAGGUACAUGAGGAUCACCCAUGUAAAAC [Mod of Anonveat 5 - Jieux - Exclusion 4] (Eterna round: R97, puzzle: Exclusion 4) |  |  |  |  | 224 | 35.2 |
| UAACAUGUCUGAGGAUAUCUGCACGAUUAGUGCAGAGAAGGCAGAACAUGAGGAUCACCCAUGUAGAUCAUUAAUUAAUUAAUU [ENG1/7-B1] (Eterna round: R96, puzzle: Exclusion NG 1) |  |  |  | 288 | 712 | 344 |
| AACAAGGUAGGAUAUACAUGAGGAUCACCCAUGUCCCACCCGUUACCUAUGACCAUAUGUAGAAGGACCAAUAA [Exy#6] (Eterna round: R97, puzzle: Exclusion 3) |  |  |  |  | 16.7 | 17.8 |
